Measurements published in patent US12331073B2, “Preparation of biologically active complexes” (priority 2017, dated 2025).

Assays:
tumour cells = test: Inherent tumoricidal effect of oleate salts
cells = conditions: Vukojevic et al. Langmuir 2010; cited from earlier work
[1] = test system: Human lung carcinoma cells (A549, ATCC); test: Cell death assay (ATPlite, PrestoBlue, trypan blue exclusion); type: cell-based
Protocol: Human lung carcinoma cells (A549, ATCC) were cultured in RPMI-1640 with non-essential amino acids (1:100), 1 mM sodium pyruvate, 50 μg/ml Gentamicin and 5-10% fetal calf serum (FCS) at 37° C., 5% CO2. For cell death experiment, cells were grown on 96-well plate (2×10^4/well, Tecan Group Ltd) overnight. Cells were incubated with biologically active complexes obtained in Example 1 at dosages equivalent to either 7, 21 or 35 μM peptide in serum-free RPMI-1640 at 37° C. FCS was added after 1 hour. Cell death was quantified 3 hours after peptide-oleate treatment by three biochemical methods including 1) estimation of cellular ATP levels using luminescence based ATPlite™ kit (Perkin Elmer) 2) Presto Blue fluorescence staining (Invitrogen, A13262) and 3) trypan blue exclusion assay. Fluorescence and luminescence were measured using a microplate reader (Infinite F200, Tecan).

tumor cells = conditions: early in vitro experiments; cited from earlier work
skin papillomas = conditions: topical administration, placebo controlled clinical study; cited from earlier work
bladder cancer [2] = conditions: local instillations; cited from earlier work
bladder cancer [3] = conditions: murine bladder cancer model; cited from earlier work
glioblastoma xenograft = conditions: rat glioblastoma xenograft model; cited from earlier work

CCCCCCCC/C=C\CCCCCCCC(=O)[O-].[Na+] [sodium oleate]
inherent tumoricidal effect (tumour cells): appear to have some inherent tumoricidal effect

B1: complexes using equine lysozyme and oleic acid: complexes using equine lysozyme and oleic acid (Vukojevic et al.) (protein, UniProt P11376 1-129, looked up)
Lysozyme C, milk isozyme: KVFSKCELAHKLKAQEMDGFGGYSLANWVCMAEYESNFNTRAFNGKNANGSSDYGLFQLNNKWWCKDNKRSSSNACNIMCSKLLDENIDDDISCAKRVVRDPKGMSAWKAWVKHCKDKDLSEYLASCNL
modifications: complex with oleic acid
cell death (cells): found to produce cell death

B2: BAMLET: bovine alpha-lactalbumin (700 μM) and sodium oleate (3.5 mM) dissolved in Phosphate Buffered Saline by vortexing (protein, UniProt P00711 20-142, looked up)
Alpha-lactalbumin: EQLTKCEVFRELKDLKGYGGVSLPEWVCTTFHTSGYDTQAIVQNNDSTEYGLFQINNKIWCKDDQNPHSSNICNISCDKFLDDDLTDDIMCVKKILDKVGINYWLAHKALCSEKLDQWLCEKL
modifications: complex with sodium oleate
notes: bovine alpha-lactalbumin (700 μM) and sodium oleate (3.5 mM) dissolved in Phosphate Buffered Saline by vortexing
activity after lyophilisation of the complex ([1]; after lyophilisation): removed the activity | tumour cell death activity of freshly prepared solution ([1]; solution in PBS vortexed at room temperature, FIG. 4): biologically active and killed A549 lung carcinoma cells in a dose dependent manner

B3: HAMLET (protein, UniProt P00709 20-142, looked up)
Alpha-lactalbumin: KQFTKCELSQLLKDIDGYGGIALPELICTMFHTSGYDTQAIVENNESTEYGLFQISNKLWCKSSQVPQSRNICDISCDKFLDDDITDDIMCAKKILDIKGIDYWLAHKALCTEKLEQWLCEKL
modifications: complex with oleic acid
anti-tumor activity in vitro (tumor cells): broad anti-tumor activity with a high degree of tumor selectivity | effect on skin papillomas (skin papillomas): removed or reduced the size of skin papillomas | tumor cell death in bladder cancer patients (bladder cancer [2]): caused rapid death of tumor cells but not of healthy tissue surrounding the tumor | therapeutic efficacy in bladder cancer (bladder cancer [3]): Therapeutic efficacy | cell death in healthy brain tissue (glioblastoma xenograft): without evidence of cell death in healthy brain tissue | tumor progression and survival (glioblastoma xenograft): delayed tumor progression and led to increased survival
